Source: article doi:10.1101/456046

Target: Photosystem II subunit S (PsbS) from Physcomitrella patens (Physcomitrella patens)
Assay: SDS-PAGE

Photosystem II subunit S (PsbS) from Physcomitrella patens (natural protein)
stoichiometry N: 2
